# According to patent publication US20230257452A1 (GTINVENT, published 2023):
# Where no end group is shown, it is not given here. The star is where a group is joined. Biotin = O=C1N[C@H]2[C@H](CS[C@H]2CCCCC(=O)*)N1
# T1: N biotin 341-353 tau peptide (human)
# T1 peptide: Biotin-SEKLDFKDRVQSK
# B1: S1D12 scAb (scFv)
# scFv: QVQLQESGPSLVKPSQTLSLTCTVSGFSLNNNAVGWVRQAPGKVPESLVGCSSDGTCYYNSALKSRLDITRDTSKNQISLSLSSVTTDDAAVYYCTRGHYSIYGYDYLGTIDYWGPGLLVTVSSEGKSSGASGESKVDDQAVLTQPSSVSGSLGQRVSITCSGSSSNVGGGNSVGWYQHLPGSGLKTIIYDTNSRPSGVPDRFSGSRSGNTATLTINSLQAEDEGDYYCVTGDSTTHDDLVGSGTRLTVLG
# notes: not shown: human C kappa domain and hexa-His tag of the scAb format
# B2: S1G2 scAb (scFv)
# scFv: QVQLQESGPSLVKPSQTLSLTCTVSGFSLTSNSVGWVRQAPGKAPEWVAGIDTDGEEGYNPALNSRLSITRDTSKSQVSLSLSSVTSEDTAVYYCGRSYRADGLAYGYVQAIDYWGPGLLVTVSSEGKSSGASGESKVDDQAVVTQPSSVSGSLGQRVSITCSGSFIGISSVGWFQQLPGSGLRTIIVASDGRPSGVPDRFSMSKSGNTATLTISSLQAEDEADYFCGSSDRTPYTGVFGSGTRLTVLG
# notes: as for B1
# B3: CB3 scAb (scFv)
# scFv: QVQLQESGPSLVKPSQTLSLTCTVSGFSLSSVAVNWVRQAPGKVPEWLGGIISNGGTGYNPALKSRLSITRDTSKSQVSLALTHVTTEDTAVYYCGRGVEWEGSMDYLGPGLLVTVSSEGKSSGSGSETKVDDQSVLTQPSSVSGFLGQRVTITCSGSSSNVGAGSYVGWYQQVPGSGLRILIYGATKRASGLPDRFSGSRSGNTATLTISSLQAEDEADYYCVSYQTDFTLVFGSGTRLTVLG
# notes: as for B1
# B4: CA7 scAb (scFv, V domains shown)
# VH: RVRLQGSGPSLVKPSQTLSLTCTVSGFSFDSYYVGWVRQAPGKALEWLGNIYSTGRAFYNPALKSRLSITRDTSKSQVSLSVSSVTIEDTALYYCVRGSYYHGGGNGMVDFFDYWSPGLLVTVSS
# VL: QVVRTQPSSVSGSLGQRVSITCSGSSSNVGYGNYVGWFQQVPGSAPKLLIYAATSRASGVPDRFSGSRSGNTATLTIDSLQAEDEADYYCSSYQRGNTGVFGSGTRLTVLG
# notes: tested as scAb (VH-linker-VL-HuCk-His in one chain)
# Key:
# [1] = target: T2, full length human tau protein (2N4R, isoform Tau-F, 441 amino acids) (human, UniProt P10636 1-758); assay: ELISA, hT40 coated, scAb titrated
# T2 construct: also called hT40; htau40
# [2] = target: Tau 337-368 (human); assay: ELISA, antigen coated, scAb titrated; panel title 337-368
# From the text: (§1) The plates were blocked with 2% MPBS and scAb samples added at desired starting concentrations and double diluted across the plate. Binding was detected using anti-Human C Kappa HRP conjugated secondary antibody and the resulting immunoreaction was developed and absorbance values measured as described above.
# [3] = target: T1, N biotin 341-353 tau peptide; assay: ELISA, biotinylated peptide on streptavidin, scAb titrated [B]
# Procedure: Briefly, 5 μg/ml streptavidin (Thermo Fisher) was adsorbed to Nunc 96-well MaxiSorp plates and following incubation at 37° C. for 1 h, the plates were washed as normal and blocked with 2% MPBS. […] Subsequently, test scAbs at starting concentrations of 100-500 nM was added and double diluted across the plate for each peptide and incubated for 1 h at 37° C. Rest of the ELISA was conducted as described above and the plates were read at absorbance 450 nm. Immunoreactivity of the scAb of interest was quantified as the % of scAb was bound for each peptide at a chosen concentration (FIG. 15-20).
# [4] = target: T3, dGAE (tau 297-391) (human, UniProt P10636 614-708); assay: tau-tau immunoassay: scAb preincubated with 100 nM dGAE; blocked ligand: plate-bound dGA (1000 nM); bound dGAE detected with E2E8
# T3 construct: also called dGAE95
# Procedure: The adapted method is as follows: dGA (1000 nM) was adsorbed to a Nunc 96-well MaxiSorp plate and incubated for 1 h at 37° C. Plates were subsequently washed 3 times with PBST which was performed after each 1 h incubation. The plates were blocked with 2% (w/v) dried milk powder in PBS for 1 h at 37° C. […] The secondary antibody used was HRP-conjugated Anti-mouse IgG (1:1000 dilution, Sigma) and incubated at RT for 1 h. The plate was subsequently developed, and readings taken at absorbance 450 nm.
# [5] = target: T4, mouse tau (isoform Tau-A) (mouse, UniProt P10637 2-733); assay: sandwich ELISA on mouse brain homogenates (incl. wild type), S1D12 mAb capture
# T4 construct: endogenous tau in mouse brain homogenate or plasma; also called endogenous mouse tau
# [6] = target: T2, full length human tau protein (2N4R, …); assay: sandwich ELISA, S1D12 mAb capture, hT40 titrated, detection scAb, chemiluminescent
# Procedure: (§2) Full length tau (hT40), at 1 μg/ml starting concentration was added to designated wells and double diluted across rest of the plates and left to incubate at R/T for 1 h. A series of detection scAbs with varying epitope recognition properties were added at 10 μg/ml to designated wells (FIG. 22). For colourimetric detection HRP conjugated anti-HuCk secondary antibody was used and the resulting immunoreaction was developed and absorbance at 450 nm measured as described previously. Cut-off point for a positive binding event was an absorbance value of 0.3 following background subtraction. In order to enhance the assay sensitivity, a chemiluminescent detection method was adopted where 50 μL SuperSignal ELISA Femto Substrate (Thermo Scientific) was added to each well following incubation with anti-HuCK HRP antibody and subsequent washing. The luminescence was read using Clariostar Plus microplate reader. A further modification to this protocol was done where various detection scAbs were directly conjugated with HRP and detected using chemiluminescent protocol as before.
# [7] = target: T2, full length human tau protein (2N4R, …); assay: sandwich ELISA, S1D12 mAb capture, hT40 titrated, detection scAb at 10 ug/ml, colourimetric
# Procedure: as §2
# [8] = target: dGA (tau 297-390) (human, UniProt P10636 614-707); assay: ELISA
# From the text: as §1
# [9] = target: T2, full length human tau protein (2N4R, …); assay: ELISA, hT40 coated, scAb titrated; remark: listed apart in the source
# [10] = target: T3, dGAE (tau 297-391); assay: sandwich ELISA, 423 mAb capture, dGAE titrated, scAb at 10 ug/ml as detector [cont) G-I]
# Procedure: (§3) Following overnight agitation, one third of each sample was kept aside as ‘total’ and the rest was spun down at 16000×g for 30 min and separated into ‘supernatant’ and ‘pellet’. The pellet was then resuspended in half the original volume for further experiments. […] All double dilutions were done in final volumes of 100 μl. This was left to incubate on lab bench for 1 h followed by the addition of test scAbs at 10 μg/ml.
# [11] = target: T5, dGAE aggregates (human, UniProt P10636 614-708, limits assumed); assay: sandwich ELISA, 423 mAb capture, aggregation sample titrated, scAb at 10 ug/ml as detector [cont) G-I]
# T5 construct: 100 µM dGAE aggregated with DTT at 37 °C, 700 rpm, 24 h; also called aggregated dGAE
# Procedure: as §3
# [12] = target: T2, full length human tau protein (2N4R, …); assay: ELISA
# From the text: as §1
# [13] = target: Tau 1-319 (human, UniProt P10636 1-636); assay: ELISA
# From the text: as §1
# T3 sequence (P10636 614-708 limits assumed): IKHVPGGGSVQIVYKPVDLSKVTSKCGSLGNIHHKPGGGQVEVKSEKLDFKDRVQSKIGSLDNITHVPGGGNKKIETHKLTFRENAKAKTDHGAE
# T2 sequence (P10636 other isoform, or with tags, fused parts or gaps limits assumed): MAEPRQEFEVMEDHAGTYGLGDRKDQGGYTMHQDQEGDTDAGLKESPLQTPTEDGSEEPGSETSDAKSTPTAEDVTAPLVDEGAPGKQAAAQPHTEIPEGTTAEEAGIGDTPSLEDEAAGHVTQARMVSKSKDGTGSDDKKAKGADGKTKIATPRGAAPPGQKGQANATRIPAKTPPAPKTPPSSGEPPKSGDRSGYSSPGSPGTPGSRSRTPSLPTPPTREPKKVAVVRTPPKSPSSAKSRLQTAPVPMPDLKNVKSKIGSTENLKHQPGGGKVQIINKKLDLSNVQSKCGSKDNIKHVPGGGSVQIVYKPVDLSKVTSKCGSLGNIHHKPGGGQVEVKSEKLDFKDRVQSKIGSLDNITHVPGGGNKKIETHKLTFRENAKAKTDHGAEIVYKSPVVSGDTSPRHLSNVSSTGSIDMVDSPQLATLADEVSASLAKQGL
# Sequence of Tau 337-368 (human) (chain, as listed by the source): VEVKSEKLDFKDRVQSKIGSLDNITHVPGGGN
# T5 sequence (P10636 614-708 limits assumed): as the sequence (P10636 614-708 limits assumed) above
# Sequence of Tau 1-319 (P10636 other isoform, or with tags, fused parts or gaps): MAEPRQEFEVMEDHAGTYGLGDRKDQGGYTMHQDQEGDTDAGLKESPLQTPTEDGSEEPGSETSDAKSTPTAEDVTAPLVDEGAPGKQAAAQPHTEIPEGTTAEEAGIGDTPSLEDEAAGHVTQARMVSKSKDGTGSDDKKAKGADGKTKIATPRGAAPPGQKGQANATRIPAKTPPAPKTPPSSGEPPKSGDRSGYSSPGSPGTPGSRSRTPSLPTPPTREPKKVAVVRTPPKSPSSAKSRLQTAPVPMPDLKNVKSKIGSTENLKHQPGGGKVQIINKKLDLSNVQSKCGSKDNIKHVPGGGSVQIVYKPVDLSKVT
# Sequence of dGA (tau 297-390) (P10636 614-707 limits assumed): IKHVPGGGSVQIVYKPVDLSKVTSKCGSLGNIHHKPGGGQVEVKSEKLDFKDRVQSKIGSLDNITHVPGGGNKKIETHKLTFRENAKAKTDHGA
# T4 sequence (P10637 other isoform, or with tags, fused parts or gaps limits assumed): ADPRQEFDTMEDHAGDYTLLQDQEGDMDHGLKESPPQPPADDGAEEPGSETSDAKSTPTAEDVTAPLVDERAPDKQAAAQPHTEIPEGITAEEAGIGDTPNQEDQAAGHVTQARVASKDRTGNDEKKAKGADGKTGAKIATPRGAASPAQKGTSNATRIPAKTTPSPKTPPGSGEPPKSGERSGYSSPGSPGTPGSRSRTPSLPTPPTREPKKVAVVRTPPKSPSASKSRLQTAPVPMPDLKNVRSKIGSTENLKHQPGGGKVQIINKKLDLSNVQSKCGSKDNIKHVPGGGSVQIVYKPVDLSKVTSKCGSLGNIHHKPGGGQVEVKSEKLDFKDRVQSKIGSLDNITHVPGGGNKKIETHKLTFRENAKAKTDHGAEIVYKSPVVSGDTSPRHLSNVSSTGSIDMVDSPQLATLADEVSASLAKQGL
binder,measurement,setting,value
B1,EC50 (read off the curve),[1],~0.9 mg/L
same,binding result,[2],binds
same,binding result,[3],binds
same,B50,[4],80 nM
B2,binding result,[5],binds
same,LoD (ng/ml) chemiluminescence detection,[6],0.12 ng/mL
same,LoD (ng/ml) colourimetric detection,[7],2 ng/mL
same,B50,[4],65 nM
B3,binding result,[8],binds
same,binding result,[9],binds
same,binding result,[10],binds
same,binding result,[11],binds
B4,binding result,[12],binds
same,binding result,[13],binds
